Test results: article PMC3355152, “Crystal Structures of Lsm3, Lsm4 and Lsm5/6/7 from Schizosaccharomyces pombe” (PLoS ONE, 2012)

Experiments:
[1] = target: the molecule itself; test: AUC; sedimentation equilibrium, 20°C, 20 mM Hepes pH 7.5, 500 mM NaCl; 15,000, 18,000, 25,000 rpm; 0.3-1.5 mg/ml; fitted to a monomer-trimer model (HETEROANALYSIS); monomer to trimer
[2] = target: the molecule itself; test: crystal structure; SeMet crystals grown from the SeMet-SpLsm2/3 sample; hanging drop, 15°C, 0.1 M Mes pH 6.5, 0.2 M MgCl2, 40% MPD; 2.7 Å, SAD; only SpLsm3 in the crystal
[3] = target: the molecule itself; test: AUC; sedimentation velocity, 42000 r.p.m., 20°C, 20 mM Hepes pH 7.5, 100 mM NaCl; 0.75, 1.0 and 1.5 mg/ml; c(S) and c(M) distributions (SEDFIT)

Protein	stoichiometry N [3]	further results
SpLsm4N (C-terminal truncated Lsm4 from S. pombe, residues 1-91) (domain or fragment, UniProt O14352 1-91, looked up, SeMet-substituted in the crystal, Lsm4 (Sm-like protein 4), S. pombe, residues 1-91; printed monomer mass 12204 Da; No cleavage of the His6 tag is told for this construct; The model covers residues 12-71; also called N-terminal region of Lsm4; source: E. coli B834 (DE3), purified (TALON Co2+, Superdex-75)) MLPLTLLNATQGRPILVELKNGETFNGHLENCDNYMNLTLREVIRTMPDGDKFFRLPECYIRGNNIKYLRIQDEVLSQVAKQQAQQRENRG	–	stoichiometry N [1]: 3
SpLsm3 from the co-expressed SpLsm2/3 sample (natural protein, SeMet-substituted in the crystal, Lsm3 (Sm-like protein 3), S. pombe, full length; inserted into MCS2 of pETDuet-1, no tag told; The SpLsm3 crystals grew from the SeMet-SpLsm2/3 sample; Residues 1-8 and 56-69 are disordered in the model; also called SeMet-SpLsm3; source: E. coli B834 (DE3), co-expressed with His6-SpLsm2 (pETDuet-1 MCS2), purified (TALON Co2+, Superdex-200)) not shown	–	stoichiometry N [2]: 7
SpLsm5/6/7 sub-complex (trimeric complex of SpLsm5, SpLsm6 and SpLsm7) (complex, SeMet-substituted in the crystal | SeMet-substituted in the crystal | SeMet-substituted in the crystal, Lsm5 (Sm-like protein 5), S. pombe, full length; Lsm6 (Sm-like protein 6), S. pombe, full length; Lsm7 (Sm-like protein 7), S. pombe, full length; One copy of each subunit (printed mass of this unit 31240 Da); two such trimers form the hexameric ring; source: E. coli B834 (DE3), co-expressed (pETDuet-1 and pACYCDuet-1), purified (TALON Co2+, Superdex-200); copies: 1 + 1 + 1) chain 1: not shown chain 2: MDSSPNEFLNKVIGKKVLIRLSSGVDYKGILSCLDGYMNLALERTEEYVNGKKTNVYGDAFIRGNNVLYVSALDD chain 3: MSSLQKRPGPGNSSQPTERPRKESILDLSRYQDQRIQATFTGGRQITGILKGFDQLMNLVLDDVEEQLRNPEDGKLTGAIRKLGLVVVRGTTLVLIAPMDGSEEIPNPFVQAE	2	–
SpLsm3 (Lsm3 from S. pombe, expressed alone) (natural protein, Lsm3 (Sm-like protein 3), S. pombe, full length; modified pETDuet-1 MCS1 with N-terminal His6-tag followed by a PreScission site; printed monomer mass 11087 Da; source: E. coli B834 (DE3), purified (TALON Co2+, PreScission cleavage, second TALON, Superdex-200); not shown: His6, N-terminal, cleaved) not shown	7	–
ScLsm3 (Lsm3 from S. cerevisiae) (natural protein, Lsm3 (Sm-like protein 3), Saccharomyces cerevisiae; the Lsm3 gene amplified from genomic DNA; printed monomer mass 10450 Da; source: E. coli B834 (DE3), purified (TALON Co2+, PreScission cleavage, second TALON, Superdex-200); not shown: His6, N-terminal, cleaved) METPLDLLKLNLDERVYIKLRGARTLVGTLQAFDSHCNIVLSDAVETIYQLNNEELSESERRCEMVFIRGDTVTLISTPSEDDDGAVEI	8	–
